Laboratory results as given in patent publication US20250296982A1.
pKd: −log10 of the molar value.

Assays:
[1] = molecular target: FcγRIIIa (UniProt P08637); assay: plate binding assay, O.D. 650 against antibody concentration (format not described in Example 4)
[2] = molecular target: C1q of the low toxicity guinea pig complement used in the CDC assay (Cedarlane Laboratories Product #CL4051) (guinea pig)
[3] = molecular target: FcγRIIIa (UniProt P08637)
[4] = molecular target: TRIM21-GST (Antibodies Online catalogue #ABIN1323621) (UniProt P19474); assay: ELISA, antibody coated, TRIM21-GST titrated; reference WT
[5] = molecular target: TRIM21-GST (Antibodies Online catalogue #ABIN1323621) (UniProt P19474); assay: ELISA: antibody coated at 25 µg/mL, TRIM21-GST titrated, EC50 = midpoint of the 4PL fit
[6] = molecular target: recombinant human FcRn (human α-FcRn with a 6× histidine tag on the C-terminus, co-expressed with human β2M) (human) (UniProt P55899); assay: biolayer interferometry (Octet): antibody on anti-CH1 biosensor, recombinant FcRn in solution, pH 6.0; fold change against IgG with WT Fc
[7] = molecular target: recombinant human FcRn (human α-FcRn with a 6× histidine tag on the C-terminus, co-expressed with human β2M) (human) (UniProt P55899); assay: biolayer interferometry (Octet): antibody on anti-CH1 tip, FcRn in solution, pH 6.0
[8] = molecular target: full-length, membrane-bound FcRn heterodimer (FcRn alpha and β2m) on transiently transfected Expi293 cells (UniProt P55899); assay: cell-based competition at pH 6.0, flow cytometry: FcRn-expressing cells, dilutions of IgG against a fixed concentration of labelled Fc competitor Fc-A488
[9] = molecular target: FcγRIIIa (UniProt P08637); assay: ELISA: FcγRIIIA coated, antibody titrated
[10] = molecular target: recombinant human FcRn (human α-FcRn with a 6× histidine tag on the C-terminus, co-expressed with human β2M) (human) (UniProt P55899); assay: biolayer interferometry (Octet): antibody on anti-CH1 biosensor, recombinant FcRn in solution, pH 6.0; reference of the fold changes

EC50 (ADCC reporter bioassay, CD20+ WIL2-S target cells) [3] [ng/mL] | TRIM21 binding EC50, fold of WT EC50 [4] [fold] | EC50 [5] [ng/mL] | kd (fold decrease*) [6] [fold] | koff (fold decrease*) [6] [fold] | kon (fold increase*) [6] [fold] | Substance | EC50 (CDC, CD20+ Raji cells with guinea pig complement) [2] [ng/mL] | further results
– | – | – | – | – | – | LS (antibody) | – | EC50 (read off the curve) [1]: 0.06 µM
2.66 | – | – | – | – | – | Rituximab with Fc variant FcMut228 (T256D_N286D_T307R_Q311V_A378V) (antibody) | 0.22 | –
– | < 1.5 | 7800 | 12.4 | 3.7 | 3.4 | Motavizumab with Fc variant FcMut215 (T307Q_Q311V_A378V) (antibody) | – | –
8.3 | – | – | – | – | – | Rituximab with Fc variant FcMut197 (H285N_T307Q_N315D) (antibody) | 2.54 | –
– | < 1.5 | 10400 | 12.4 | 4 | 3.2 | Motavizumab with Fc variant FcMut228 (T256D_N286D_T307R_Q311V_A378V) (antibody) | – | –
3.07 | – | – | – | – | – | Rituximab with Fc variant FcMut229 (T256D_H285D_T307R_Q311V_A378V) (antibody) | 0.14 | –
– | < 1.5 | 10500 | 13.2 | 3.3 | 3.8 | Motavizumab with Fc variant FcMut213 (H285D_T307Q_A378V) (antibody) | – | –
– | – | 14500 | 9.2 | 3.6 | 2.6 | LS (Xencor) (antibody) | – | –
4.01 | – | – | – | – | – | Rituximab with Fc variant FcMut213 (H285D_T307Q_A378V) (antibody) | 0.267 | –
– | – | – | – | – | – | antibody molecule with Fc variant FcMut015 (D376Q_M428L) | – | pKd [7]: 6.54; IC50 (read off the curve) [8]: 0.09 µM
6.14 | – | – | – | – | – | WT (antibody) | 0.715 | EC50 (read off the curve) [9]: 3000 ng/mL; pKd [7]: 6.06; EC50 (read off the curve) [1]: 0.04 µM; IC50 (read off the curve) [8]: 0.3 µM
– | < 1.5 | 7410 | 11 | 3.2 | 3.2 | Motavizumab with Fc variant FcMut183 (T256D_Q311V_A378V) (antibody) | – | –
– | < 1.5 | 7730 | 5.9 | 2.6 | 2.3 | Motavizumab with Fc variant FcMut045 (T256D_T307R_Q311V) (antibody) | – | –
3.92 | – | – | – | – | – | Rituximab with Fc variant FcMut183 (T256D_Q311V_A378V) (antibody) | 0.103 | –
2.73 | – | – | – | – | – | Rituximab with Fc variant FcMut215 (T307Q_Q311V_A378V) (antibody) | 0.141 | –
– | – | – | – | – | – | antibody molecule with Fc variant FcMut008 (T256D_T307R) | – | pKd [7]: 6.42; IC50 (read off the curve) [8]: 0.1 µM
– | – | 8500 | – | – | – | Motavizumab with wild-type Fc (antibody) | – | kd (fold decrease*) [10]: 1 fold; koff (fold decrease*) [10]: 1 fold; kon (fold increase*) [10]: 1 fold
– | – | 10100 | 8.5 | 3.6 | 2.3 | YTE (Medimmune) (antibody) | – | –
– | < 1.5 | 12300 | 9.1 | 3 | 2.9 | Motavizumab with Fc variant FcMut197 (H285N_T307Q_N315D) (antibody) | – | –
